Assay [1] relates to LPA receptor-null B103 cells (empty vector). As to the kind of experiment: Intracellular free Ca2+ (Fura-2AM) in B103 cells transfected with empty vector. The class given is cell-based, rat. The note with it: gintonin 1 μg/ml; empty vector B103 cells. From the text:
(§1) LPA family receptors are endogenous to cells of most organs. B103 rat neuroblastoma cells, known as LPA receptor-null cells (Valentine et al., Biochim Biophys Acta 1780. 597-605) were transiently transfected with a plasmid (vector) carrying one of genes coding for LPA1(edg-2), LPA2(edg-4), LPA3(edg-7), LPA4, LPA5 and LPA6 receptors or a plasmid carrying none of them (empty vector). Two or three days after transfection, the cells are suspended, and made permeable. Then, the permeable cells are treated with Fura-2AM, a fluorescent dye binding to calcium, and then with gintonin, followed by spectrofluorephotometry to examine whether gintonin induces an increase in intracellular free Ca^2+ level. […]
Briefly, Fura 2-AM loaded cells were diluted with an experimental medium to a final density of 2˜4×10^6 cells/mL, and transferred to polystyrene cuvettes (Elkay Ultra-VU). […] Emission was detected at 510 nm Excitation and emission slit widths were 5 nm Background calibration was performed as described by Jørgensen et al. […]

Assay [2] deals with mutant NMDA receptor (S1308A). The assay can be described thus: Gintonin-induced activation of mutant NMDA receptor S1308A in oocytes. The note with it: mutant S1308A (PKC phosphorylation site). The class given is cell-based. As for the experimental part:
Two-electrode voltage-clamp recordings were obtained from individual oocytes placed in a small Plexiglas net chamber (5 ml). Electrophysiological experiments were performed using microelectrodes filled with 3 M KCl (resistance of 0.2-0.7 MΩ) and an Oocyte Clamp amplifier (OC-725C; Warner Instrument, Hamden, Conn.). For physiological recordings of NMDA receptor activity, oocytes were first perfused with Mg^2+-free ND96 (mM: 96 NaOH, 2 KOH, 0.3 CaCl2, 5 HEPES pH 7.6 with methanesulfonic acid). Then, the oocytes were clamped at −60 mV holding potential, followed by recoding NMDA currents (induced by administering […]) (Zheng et al., J Neurosci. 17, 8676-8686, 1997; Chang and Kuo, J Neurosci. 28, 1546-1556, 2008).
Thus, it is understood that gintonin stimulates PKC to phosphorylate the NMDA receptor at a specific site (S1308), and thus that gintonin-induced NMDA receptor activation is associated with PKC activity.

The next assay addresses LPA5 receptor (Homo sapiens, UniProt Q9H1C0). The assay can be described thus: Intracellular free Ca2+ (Fura-2AM) in LPA5-expressing B103 cells. The arrangement: host or cells: B103 rat neuroblastoma cells. Format: cell-based.
Text: as §1

Usually EC50 stands for the concentration giving half of the maximal effect.

LPA5 receptor, sequence (Q9H1C0 whole entry): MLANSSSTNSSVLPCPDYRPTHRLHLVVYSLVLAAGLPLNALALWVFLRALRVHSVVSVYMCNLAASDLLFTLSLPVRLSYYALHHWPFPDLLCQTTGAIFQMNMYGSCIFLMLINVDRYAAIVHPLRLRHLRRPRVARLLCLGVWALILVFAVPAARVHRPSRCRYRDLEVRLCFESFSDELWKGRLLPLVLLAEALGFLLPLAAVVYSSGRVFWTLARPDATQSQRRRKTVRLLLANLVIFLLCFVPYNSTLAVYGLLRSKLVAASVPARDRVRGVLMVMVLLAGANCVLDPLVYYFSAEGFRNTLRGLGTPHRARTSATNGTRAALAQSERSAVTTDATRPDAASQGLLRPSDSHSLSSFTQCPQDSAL

B1: gintonin: ginseng-derived glycolipoprotein; structural protein of ginseng major latex-like protein (MLP151) and ribonuclease-like storage proteins; crude gintonin used in tests (protein)
chain 1: MGLTGKLICQTGIKSDGDVFHELFGTRPHHVPNITPANIQGCDLHEGEFGKVGSVVIWNYSIDGNAMIAKEEIVAIDEEDKSVTFKVVEGHLFEEFKSIVFSVHVDTKGEDNLVTWSIDYEKLNESVKDPTSYLDFLLSVTRDIEAHHLPK
chain 2: RSDYPWAMFALRLQWPAGFCEVNNACDTKSLLNTFTIHGLYPYNAKGTPALYCDGTAFDVNSVSDFLAEMHLAWPSHETNTEDIQFWEHEWKKHGRCSEALLKQTDYFRTALAFRKAFDIVGLLNQEGIYPNNDLYRPKMIKEAIKKHLNAVPEIDFTKNENSEYVLTDINVCVNQQATRFVDCPTDDATDDYRLKFVRLPSKMKFADPRTNSII
Regarding B1, the increase in intracellular calcium level was 22.7 ± 4.1 nM in assay [1] and 297.5 ± 21.8 µM in the assay with LPA5 receptor (gintonin 1 μg/ml, LPA5-expressing B103 cells). For the same molecule, in assay [2], the “gintonin-induced NMDA receptor activation” value was “a low level of gintonin-induced NMDA receptor activation”. In addition, in the assay with LPA5 receptor (LPA5 receptor, B103 cells, read-out: EC50, LPA receptor-mediated intracellular calcium increase), the EC50 is 0.046 ± 0.003 nM.

The values are drawn from US20140234868A1, “USE FOR GLYCOLIPOPROTEIN GINTONIN, ISOLATED AND IDENTIFIED FROM GINSENG, AS A NATURAL MEDICAL-PLANT DERIVED LIGAND” (KONKUK UNIVERSITY INDUSTRIAL COOPERATION CORP., priority 2011, published 2014).
